We go through five molecules from US20090083877A1, “Transcription Factors, DNA and Methods for Introduction of Value-Added Seed Traits and Stress Tolerance” (priority 2002, published 2009).

Assay [1] relates to ABA-inducible wheat Em promoter. Kind of assay: Em-GUS reporter transactivation in transiently transformed rice protoplasts. The settings on record: for Synergy with exogenous ABA on Em-GUS expression: 100 μM ABA, 16 h; for Transactivation of Em-GUS expression by overexpressed effector: effector overexpressed alone, average of four replicate transformations. It counts as cell-based, Oryza sativa. How it is done:
Embryonic rice (Oryza sativa) callus cultures (Radon 6 from the International Rice Research Institute, Los Bafios, Phillipines) were obtained. Embryonic rice callus cultures were grown as suspensions in liquid culture as well as on phytagel plates containing MS medium supplemented with 2.0 mg/L 2,4-D. Cultures were propagated and digested for making protoplasts as previously described except that 10 mM HEPES (Sigma, St. Louis, Mo., USA), pH 5.6, was substituted for phosphate in the Krens'F medium, and 2% (weight/volume; w/v) cellulase YC, 0.35% (w/v) macerozyme, and 0.1% (w/v) pectolyase Y23 were used for overnight digestion (Karlan Research Products, Santa Rosa, CA, USA). Protoplasts were transformed with various mixtures of DNA reporter and effector constructs using polyethylene glycol precipitation. Transformed protoplasts were incubated with or without 100 μM ABA for 16 h in the dark in Krens solution before quantifying β-glucuronidase (GUS) and luciferase (LUC) reporter enzyme activities as previously described. ABA was dissolved and stored in absolute ethanol at −20° C. as a 0.1 M stock solution. Prior to use, required dilutions of ABA were made in Krens solution, and control samples received the same volume of solvent as in ABA treatments.
(§1) Plasmid pBM207 contains the wheat (Triticum aestivum) Early Methionine-labeled (Em) promoter driving the expression of GUS, encoded by uida from Escherichia coli. Plasmid pDH359 contains ABI5 cDNA driven by Ubiquitin promoter. Plasmid pCR349.13S contains the 35S promoter driving the VP1 sense cDNA. Plasmid pDirect2.6 contains the Ubi promoter in a reverse orientation and was used as control construct to balance the total amount of input plasmid DNA between various treatments. Plasmid pAHC 18 contains the Ubi promoter driving firefly (Photinus pyralis) LUC cDNA and was included in transformations to provide an internal reference for non-ABA-inducible transient transcription in reporter enzyme assays. ABF1-ABF4, AREB3, and DPBF4 were amplified by PCR using gene-specific primers from an Arabidopsis cDNA library (Minet et al. Plant J. 2:417 (1992)) and were cloned into plasmid pDH349 (Gampala et al. J. Biol. Chem. 277: 1689 (2002)) containing the maize Ubiquitin promoter and nopaline synthase 3′ termination signals.
Simultaneously, it has been shown that ABF2, ABF3 and ABF4 overexpression in transgenic Arabidopsis results in ABA hypersensitivity and other ABA-associated phenotypes such as altered ABA-inducible gene expression and glucose signaling, reduced transpiration, and enhanced drought tolerance. The functional roles of the ABI5-like family members ABF1-ABF4 in regulation of ABA-inducible gene expression in rice protoplasts were tested and the results are shown in FIG. 1. […] Protoplasts were transformed with Em-GUS and a “dummy” effector construct (pD2.6 containing only the Ubiquitin promoter used to drive effector expression) or co-transformed with a Ubi-ABF construct and treated with or without 100 μM ABA. The values shown in FIG. 1A are the average (±S.E.M.) of four replicate transformations.
Rice protoplasts were transformed with either Em-GUS alone or in pairwise combinations of Ubi-ABF3, Ubi-ABI5, or 35S-VP1. The values in FIG. 1B are the average (±S.E.M.) of four replicate transformations. ABF3 is a related member of the ABI5-family of bZIP transcription factors.

Assay [2] has the same test system. Kind of assay: Em-GUS reporter transactivation in transiently transformed maize mesophyll protoplasts. Type of assay: cell-based. The following applies: for Transactivation of Em-GUS expression by overexpressed effector: effector overexpressed alone. How it is done:
Plant Materials. Maize mesophyll protoplasts were isolated from 20-hr illuminated leaves of 10 day old maize seedlings that had been kept in the dark at 25° C. The middle part of the second leaves (about 6 cm in length) was cut into 0.5 mm strips with a razor blade and digested in an enzyme solution containing 1% (w/v) cellulose RS, 0.1% (w/v) macerozyme R10 (Yakult Honsha, Nishinomiya, Japan), 0.6 M mannitol, 10 mM MES (pH 5.7), 1 mM CaCl2, 1 mM MgCl2, 10 mM β-mercaptoethanol, and 0.1% BSA (w/v) for 3 hr at room temperature. Protoplasts were released by shaking on a rotary shaker at 80 rpm for 10 min and were filtered through a 70 μm nylon filter. Protoplasts were collected by centrifugation at 100 g for 2 min, washed in cold 0.6 M mannitol solution, centrifuged, and resuspended at 2×10^6/mL in cold 0.6 M mannitol. Electroporation conditions were 400 V/cm, 200 μF, 10 msec, and two pulses with a Biorad GenePulser apparatus. Each sample contained 5×10^4 protoplasts and about 50 μg DNA in 0.3 mL of 0.6 M mannitol and 20 mM KCl.
as §1
The values in FIG. 2 are the average (±S.E.M.) of four replicate transformations.
To test the involvement of ABI3-Like B3 domain transcription factors in ABA signaling, ABA-inducible reporter gene transactivation by the B3 domain-containing RAV2 was assayed in maize mesophyll protoplasts transiently co-transformed with a full length cDNA under transcriptional control of the Ubiquitin promoter. Activation of Em-GUS reporter gene expression by RAV2, relative to non-ABA inducible Ubi-LUC reference reporter as internal control, and functional interactions of RAV2 with VP1, ABI5, and the ABI5-Like ABF3 were compared in protoplasts treated with or without 100 uM ABA (see FIG. 3).

“Also recorded” adds a separate entry of the source. Like-named read-outs stand apart in the source and are kept apart here.

For “ABI5: Arabidopsis basic leucine zipper (bZIP) domain transcription factor, At2g36270, SEQ ID NO 5 and 6”, in assay [1], the “Synergy with exogenous ABA on Em-GUS expression” value (“Synergy with exogenous ABA” for short) is recorded as “acted in synergy with ABA” and the “Transactivation of Em-GUS expression by overexpressed effector” value (“Transactivation of Em-GUS expression” for short) is given as “transactivated the Em promoter”. Moreover, in assay [2], the “Synergy with co-transformed VP1 on Em-GUS expression” value (“Synergy with co-transformed VP1” below) is “can synergize with co-transformed VP1” and the “Synergy with exogenous ABA” value is on record as “synergize with exogenous ABA”. Besides, in assay [2] (maize mesophyll protoplasts), the “Transactivation of Em-GUS expression” value was “sufficient for transactivation of the Em promoter; also recorded: sufficient for specific Em-GUS transactivation; also recorded: sufficient to transactivate Em-GUS expression”.

B1: AREB3: Arabidopsis ABI5-like bZIP transcription factor, At3g56850 (protein, listed as Arabidopsis thaliana)
chain: MDSQRGIVEQAKSQSLNRQSSLYSLTLDEVQNHLGSSGKALGSMNLDELLKSVCSVEANQPSSMAVNGGAAAQEGLSRQGSLTLPRDLSKKTVDEVWKDIQQNKNGGSAHERRDKQPTLGEMTLEDLLLKAGVVTETIPGSNHDGPVGGGSAGSGAGLGQNITQVGPWIQYHQLPSMPQPQAFMPYPVSDMQAMVSQSSLMGGLSDTQTPGRKRVASGEVVEKTVERRQKRMIKNRESAARSRARKQAYTHELEIKVSRLEEENERLRKQKEVEKILPSVPPPDPKRQLRRTSSAPF
B1: in assay [2], the “Synergy with co-transformed VP1” value was “no functional interactions with VP1 and not”; the “Synergy with exogenous ABA” value was “synergize with exogenous ABA”. Further, the “Transactivation of Em-GUS expression” value in assay [2] (maize mesophyll protoplasts) is given as “sufficient to transactivate Em-GUS expression”.

B2: VP1: maize VIVIPAROUS-1 B3-domain transcription factor, SEQ ID NO 1 and 2, expressed from 35S promoter (protein)
chain: MEASSGSSPPHSQENPPEHGGDMGGAPAEEIGGEAADDFMFAEDTFPSLPDFPCLSSPSSSTFSSNSSSNSSSAYTNTAGRAGGEPSEPASAGEGFDALDDIDQLLDFASLSMPWDSEPFPGVSMMLENAMSAPPQPVGDGMSEEKAVPEGTTGGEEACMDASEGEELPRFFMEWLTSNRENISAEDLRGIRLRRSTIEAAAARLGGGRQGTMQLLKLILTWVQNHHLQRKRPRDVMEEEAGLHVQLPSPVANPPGYEFPAGGQDMAAGGGTSWMPHQQAFTPPAAYGGDAVYPSAAGQQYSFHQGPSTSSVVVNSQPFSPPPVGDMHGANMAWPQQYVPFPPPGASTGSYPMPQPFSPGFGGQYAGAGAGHLSVAPQRMAGVEASATKEARKKRMARQRRLSCLQQQRSQQLSLGQIQTSVHLQEPSPRSTHSGPVTPSAGGWGFWSPSSQQQVQNPLSKSNSSRAPPSSLEAAAAAPQTKPAPAGARQDDIHHRLAAASDKRQGAKADKNLRFLLQKVLKQSDVGSLGRIVLPKKEAEVHLPELKTRDGISIPMEDIGTSRVWNMRYRFWPNNKSRMYLLENTGEFVRSNELQEGDFIVIYSDVKSGKYLIRGVKVRPPPAQEQGSGSSGGGKHRPLCPAGPERAAAAGAPEDAVVDGVSGACKGRSPEGVRRVRQQGAGAMSQMAVSI
modifications: Zea mays
Take B2: in assay [1], the “Synergy with exogenous ABA” value is reported as “acted in synergy with ABA” and the “Transactivation of Em-GUS expression” value was “transactivated the Em promoter”.

B3: RAV2: Arabidopsis ABI3-Like B3 domain transcription factor, At1g68840, SEQ ID NO 3 and 4 (protein, listed as Arabidopsis thaliana)
chain: MDSSCIDEISSSTSESFSATTAKKLSPPPAAALRLYRMGSGGSSVVLDPENGLETESRKLPSSKYKGVVPQPNGRWGAQIYEKHQRVWLGTFNEQEEAARSYDIAACRFRGRDAVVNFKNVLEDGDLAFLEAHSKAEIVDMLRKHTYADELEQNNKRQLFLSVDANGKRNGSSTTQNDKVLKTREVLFEKAVTPSDVGKLNRLVIPKQHAEKHFPLPSPSPAVTKGVLINFEDVNGKVWRFRYSYWNSSQSYVLTKGWSRFVKEKNLRAGDVVTFERSTGLERQLYIDWKVRSGPRENPVQVVVRLFGVDIFNVTTVKPNDVVAVCGGKRSRDVDDMFALRCSKKQAIINAL
B3: in assay [2], the “Effect of ABA on synergism with VP1” value was “enhanced by ABA”, the “Synergy with ABF3 on Em-GUS expression” value is reported as “synergizes; also recorded: interacts synergistically”, the “Synergy with ABI5 on Em-GUS expression” value is on record as “synergizes; also recorded: interacts synergistically” and the “Synergy with VP1 on Em-GUS expression” value is “act synergistically to activate Em-GUS expression; also recorded: interacts synergistically”. The “Effect of co-transformed ABA-INSENSITIVE-1 dominant negative allele on transactivation” value in assay [2] (maize mesophyll protoplasts, data not shown) is reported as “antagonized”. For the same molecule, the “Transactivation of Em-GUS expression” value in assay [2] (maize mesophyll protoplasts) was “sufficient for specific Em-GUS transactivation”.

B4: DPBF4/EEL: Arabidopsis ABI5-like bZIP transcription factor, Enhanced Em Level, At2g41070 (protein, listed as Arabidopsis thaliana)
chain: MGSIRGNIEEPISQSLTRQNSLYSLKLHEVQTHLGSSGKPLGSMNLDELLKTVLPPAEEGLVRQGSLTLPRDLSKKTVDEVWRDIQQDKNGNGTSTTTTHKQPTLGEITLEDLLLRAGVVTETVVPQENVVNIASNGQWVEYHHQPQQQQGFMTYPVCEMQDMVMMGGLSDTPQAPGRKRVAGEIVEKTVERRQKRMIKNRESAARSRARKQAYTHELEIKVSRLEEENEKLRRLKEVEKILPSEPPPDPKWKLRRTNSASL
Take B4: the “Synergy with co-transformed VP1” value in assay [2] (maize mesophyll protoplasts, co-transformed with VP1) was “some antagonism of ABA inducible Em-GUS expression and not”. Further, the “Transactivation of Em-GUS expression” value in assay [2] (maize mesophyll protoplasts) is listed as “sufficient to transactivate Em-GUS expression”. Also, the “Synergy with exogenous ABA” value in assay [2] (maize mesophyll protoplasts, exogenous ABA) is “synergize with exogenous ABA”.
